Laboratory results taken from US20210332142A1 (Genentech, published 2021).

What was measured:
[1] = molecular target: T1, mouse Tie2 full extracellular domain (mouse, UniProt Q02858 23-746); test: phage ELISA
T1 construct: extracellular domain; also called mFullECD
Protocol: Clones from the fourth round were screened for Tie2 binding and specificity by ELISA. Screening ELISAs were carried out by coating the wells of a 96-well microtiter plate with Tie2 protein or irrelevant protein at 65 ul per well (1 ug/ml in coating buffer) at 4° C. overnight. In a 96-tube plate, colonies from the fourth round were grown overnight at 37° C. in 400 ul 2YT media with 50 ug/ml carbenicillin and helper phage K07. The plate was spun down at 3000 rpm for 10 min. 30 ul of the culture supernatant was added with 60 ul of ELISA buffer (PBS with 0.5% BSA and 0.05% Tween20) to the Tie2-coated plate and incubated at room temperature for 1 hr. Plates were washed with PBS—0.05% Tween20 and 100 ul/well of horseradish peroxidase (HRP)-conjugated anti-M13 antibody (1/5000 dilution in PBS plus 0.5% BSA and 0.05% Tween20) at room temperature for 30 min (Sidhu et al., supra). The wells were washed with PBS—0.05% Tween20 prior to 100 ul/well of a 1:1 ratio of 3,3′,5,5′-tetramethylbenzidine (TMB) peroxidase substrate and Peroxidase Solution B (H₂O₂) ((Kirkegaard-Perry Laboratories (Gaithersburg, Md.)) being added per well and incubated for 5 min at room temperature. The reaction was stopped by adding 100 ul 1M phosphoric Acid (H₃PO₄) per well and the OD of wells was determined using a standard ELISA plate reader at 450 nm.

omalizumab = molecular target: T2, omalizumab; test: phage ELISA
T2 construct: Used as irrelevant coated protein; also called irrelevant Fc-containing protein; not shown: the constant regions

human Tie2ECD.flag = molecular target: T3, human Tie2ECD.flag (human, UniProt Q02763 23-748); test: Biacore, hIgG captured, 25C
T3 construct: also called hTie2.flag; not shown: C-terminal Flag tag
Protocol: (§1) Monovalent affinities of selected anti-Tie2 hIgGs were determined using a Biacore T200 instrument (GE Life Sciences). Anti-humanFc was covalently immobilized on a Series S CM5 Biacore sensor chip to enable non-covalent capture of anti-Tie2 antibodies and binding of human or rat Tie2ECD.flag was monitored in real time at 25° C. using a multi-cycle kinetics experiment format. Between cycles, the surface was regenerated with 3 M MgCl₂. Monovalent affinities were determined by kinetic analysis, using Biacore Evaluation Software (GE Life Sciences) to fit a 1:1 binding model to the data.

rat Tie2ECD.flag = molecular target: T4, rat Tie2ECD.flag (rat, UniProt A0ABK0L6J5 19-740); test: Biacore, hIgG captured, 25C
T4 construct: extracellular domain; also called rTie2.flag; not shown: C-terminal Flag tag
Protocol: as §1

T1 sequence (Q02858 23-746): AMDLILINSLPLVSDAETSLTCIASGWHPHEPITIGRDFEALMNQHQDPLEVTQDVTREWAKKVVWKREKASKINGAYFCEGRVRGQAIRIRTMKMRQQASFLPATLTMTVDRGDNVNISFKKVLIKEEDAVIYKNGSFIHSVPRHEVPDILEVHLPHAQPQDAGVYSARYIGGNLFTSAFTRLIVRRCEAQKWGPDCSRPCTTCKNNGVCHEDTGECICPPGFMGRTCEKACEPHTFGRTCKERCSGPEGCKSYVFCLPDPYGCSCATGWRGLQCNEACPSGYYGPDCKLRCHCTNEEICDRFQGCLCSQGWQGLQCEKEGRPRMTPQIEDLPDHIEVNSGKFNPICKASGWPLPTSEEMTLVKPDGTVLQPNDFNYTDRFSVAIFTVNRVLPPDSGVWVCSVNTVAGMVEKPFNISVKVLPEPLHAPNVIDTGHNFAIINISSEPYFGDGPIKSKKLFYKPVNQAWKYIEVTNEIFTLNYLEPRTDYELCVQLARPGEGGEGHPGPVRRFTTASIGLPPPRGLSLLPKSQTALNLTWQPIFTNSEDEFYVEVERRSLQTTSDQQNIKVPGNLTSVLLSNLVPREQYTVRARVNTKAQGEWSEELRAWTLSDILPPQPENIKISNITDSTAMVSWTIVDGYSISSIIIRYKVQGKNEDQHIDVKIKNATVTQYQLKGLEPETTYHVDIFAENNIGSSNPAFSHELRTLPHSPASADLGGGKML
T3 sequence (Q02763 23-748 limits assumed): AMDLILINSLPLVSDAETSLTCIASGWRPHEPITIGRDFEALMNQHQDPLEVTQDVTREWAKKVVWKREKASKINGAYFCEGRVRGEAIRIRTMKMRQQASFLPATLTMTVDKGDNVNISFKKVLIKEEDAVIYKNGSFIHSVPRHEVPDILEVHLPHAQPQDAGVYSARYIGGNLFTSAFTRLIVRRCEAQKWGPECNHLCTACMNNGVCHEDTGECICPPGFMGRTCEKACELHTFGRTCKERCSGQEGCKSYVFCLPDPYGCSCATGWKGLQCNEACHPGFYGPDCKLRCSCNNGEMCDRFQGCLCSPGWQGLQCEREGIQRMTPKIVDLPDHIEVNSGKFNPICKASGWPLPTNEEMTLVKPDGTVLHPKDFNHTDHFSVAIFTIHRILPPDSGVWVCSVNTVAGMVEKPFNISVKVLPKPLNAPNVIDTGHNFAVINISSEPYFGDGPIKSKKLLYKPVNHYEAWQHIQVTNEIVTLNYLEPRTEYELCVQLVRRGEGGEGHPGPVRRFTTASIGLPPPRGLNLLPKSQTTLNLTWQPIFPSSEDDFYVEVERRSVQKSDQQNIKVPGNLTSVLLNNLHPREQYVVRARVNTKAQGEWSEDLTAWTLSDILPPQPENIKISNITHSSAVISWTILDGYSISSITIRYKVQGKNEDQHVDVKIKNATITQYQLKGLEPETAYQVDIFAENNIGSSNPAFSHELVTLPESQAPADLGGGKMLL

binding result [1]: binds
binding result (omalizumab): no binding
Kd (human Tie2ECD.flag): 822 nM
Kd (rat Tie2ECD.flag): 2800 nM
B1: Tie2.24 (antibody, IgG1, V domains shown)
VH: EVQLVESGGGLVQPGGSLRLSCAASGFTFTSSGISWVRQAPGKGLEWVATINPYGGDTYYADSVKGRFTISADTSKNTAYLQMNSLRAEDTAVYYCARFYRFLSSGMDYWGQGTLVTVSS
VL: DIQMTQSPSSLSASVGDRVTITCRASQDVSTAVAWYQQKPGKAPKLLIYSASFLYSGVPSRFSGSGSGTDFTLTISSLQPEDFATYYCQQSYTTPPTFGQGTKVEIKR
notes: hIgG1 in later assays; also called Ab24
